Reference: paper PMC11774494

Target: 17b (CD4-induced human monoclonal antibody)
Assay: flow cytometry of transfected 293T cells: staining with 10 μg/ml 17b with or without sCD4-183, detection with APC anti-human IgG F(ab')2, arithmetic mean APC fluorescence of live (propidium iodide negative) single cells; 'All titrations …
Details: sCD4-183 at 0, 0.078125, 0.3125, 1.25, 5, 20, 80 μM (row value in value_extra.sCD4_183_uM), 20 min staining at room temperature, CAUTION: 17b staining of cell-surface trimers with sCD4, mostly reports trimer opening, normalized per Env, one titration each. Higher = more 17b staining of cell-surface Env. 17b's epitope is exposed, numbering: unknown, sequence starts at 1
[1] = AUC over sCD4-183 0-80 μM, parent: 0.907, scale: area under the normalized MFI curve, log10 x-axis
[2] = sCD4-183 0 μM, parent: 0.0187, scale: normalized MFI
[3] = sCD4-183 0.078125 μM, parent: 0.0465, scale: normalized MFI
[4] = sCD4-183 0.3125 μM, parent: 0.0578, scale: normalized MFI
[5] = sCD4-183 1.25 μM, parent: 0.0973, scale: normalized MFI
[6] = sCD4-183 5 μM, parent: 0.198, scale: normalized MFI
[7] = sCD4-183 20 μM, parent: 0.585, scale: normalized MFI
[8] = sCD4-183 80 μM, parent: 1, scale: normalized MFI

In the case of “HIV-1 JR-CSF envelope glycoprotein gp160 (Env), P20871 JR-CSF_D167A”, the screen value [1] was 2.23, the screen value [2] was 0.0723 and the screen value [3] was 0.181. The screen value [4] was 0.357, the screen value [5] was 0.663 and the screen value [6] was 0.945. The screen value [7] was 0.977 and the screen value [8] was 1.
“HIV-1 JR-CSF envelope glycoprotein gp160 (Env), P20871 JR-CSF_E172A” was tested, and the screen value [2] was 0.0468, the screen value [3] was 0.104 and the screen value [4] was 0.136. It also gave a screen value [5] of 0.175, a screen value [6] of 0.305 and a screen value [7] of 0.636. For the same substance, the screen value [8] was 1.
“HIV-1 JR-CSF envelope glycoprotein gp160 (Env), P20871 JR-CSF_F176A” was tested, and the screen value [1] was 3.09, the screen value [2] was 0.522 and the screen value [3] was 0.639. For the same substance, the screen value [4] was 0.761, the screen value [5] was 0.839 and the screen value [6] was 0.927. It also gave a screen value [7] of 0.946 and a screen value [8] of 1.
“HIV-1 JR-CSF envelope glycoprotein gp160 (Env), P20871 JR-CSF_F210A” was tested, and the screen value [2] was 0.0285, the screen value [3] was 0.184 and the screen value [4] was 0.319. The screen value [5] was 0.527, the screen value [6] was 0.908 and the screen value [7] was 1. The screen value [8] was 0.997.
“HIV-1 JR-CSF envelope glycoprotein gp160 (Env), P20871 JR-CSF_F317A” showed a screen value [1] of 3.03, a screen value [2] of 0.358 and a screen value [3] of 0.582. The screen value [4] was 0.76, the screen value [5] was 0.878 and the screen value [6] was 0.942. It also gave a screen value [7] of 0.988 and a screen value [8] of 1.
For “HIV-1 JR-CSF envelope glycoprotein gp160 (Env), P20871 JR-CSF_G324A”, the screen value [1] was 2.77, the screen value [2] was 0.248 and the screen value [3] was 0.463. The screen value [4] was 0.601, the screen value [5] was 0.836 and the screen value [6] was 0.959. The screen value [7] was 0.96 and the screen value [8] was 1.
“HIV-1 JR-CSF envelope glycoprotein gp160 (Env), P20871 JR-CSF_H308A” was tested, and the screen value [1] was 0.82, the screen value [2] was 0.0195 and the screen value [3] was 0.0512. The screen value [4] was 0.0642, the screen value [5] was 0.0948 and the screen value [6] was 0.178. For the same substance, the screen value [7] was 0.449 and the screen value [8] was 1.
With “HIV-1 JR-CSF envelope glycoprotein gp160 (Env), P20871 JR-CSF_I307A” the screen value [1] was 3.25, the screen value [2] was 0.46 and the screen value [3] was 0.691. For the same substance, the screen value [4] was 0.871, the screen value [5] was 0.946 and the screen value [6] was 0.908. It also gave a screen value [7] of 1 and a screen value [8] of 0.979.
Substance “HIV-1 JR-CSF envelope glycoprotein gp160 (Env), P20871 JR-CSF_I309A” has a screen value [1] of 3.03, a screen value [2] of 0.326 and a screen value [3] of 0.555. It also gave a screen value [4] of 0.777, a screen value [5] of 0.912 and a screen value [6] of 0.974. It also gave a screen value [7] of 0.97 and a screen value [8] of 1.
For “HIV-1 JR-CSF envelope glycoprotein gp160 (Env), P20871 JR-CSF_I323A”, the screen value [1] was 2.75, the screen value [2] was 0.211 and the screen value [3] was 0.421. For the same substance, the screen value [4] was 0.606, the screen value [5] was 0.838 and the screen value [6] was 0.988. It also gave a screen value [7] of 1 and a screen value [8] of 0.946.
“HIV-1 JR-CSF envelope glycoprotein gp160 (Env), P20871 JR-CSF_K305A” gave a screen value [1] of 2.6, a screen value [2] of 0.182 and a screen value [3] of 0.383. The screen value [4] was 0.554, the screen value [5] was 0.754 and the screen value [6] was 0.935. The screen value [7] was 1 and the screen value [8] was 0.978.
“HIV-1 JR-CSF envelope glycoprotein gp160 (Env), P20871 JR-CSF_N156A” showed a screen value [1] of 2.72, a screen value [2] of 0.272 and a screen value [3] of 0.437. It also gave a screen value [4] of 0.595, a screen value [5] of 0.796 and a screen value [6] of 0.913. For the same substance, the screen value [7] was 1 and the screen value [8] was 0.984.
Work on “HIV-1 JR-CSF envelope glycoprotein gp160 (Env), P20871 JR-CSF_N197K” yielded a screen value [1] of 2.29, a screen value [2] of 0.116 and a screen value [3] of 0.231. For the same substance, the screen value [4] was 0.402, the screen value [5] was 0.643 and the screen value [6] was 0.91. For the same substance, the screen value [7] was 1 and the screen value [8] was 0.993.
With “HIV-1 JR-CSF envelope glycoprotein gp160 (Env), P20871 JR-CSF_N301A” the screen value [1] was 2.59, the screen value [2] was 0.178 and the screen value [3] was 0.314. For the same substance, the screen value [4] was 0.564, the screen value [5] was 0.801 and the screen value [6] was 0.974. For the same substance, the screen value [7] was 0.958 and the screen value [8] was 1.
For “HIV-1 JR-CSF envelope glycoprotein gp160 (Env), P20871 JR-CSF_N332A”, the screen value [1] was 1.33, the screen value [2] was 0.0498 and the screen value [3] was 0.0842. It also gave a screen value [4] of 0.124, a screen value [5] of 0.2 and a screen value [6] of 0.456. The screen value [7] was 0.802 and the screen value [8] was 1.
Substance “HIV-1 JR-CSF envelope glycoprotein gp160 (Env), P20871 JR-CSF_P470A” has a screen value [1] of 1.6, a screen value [2] of 0.119 and a screen value [3] of 0.215. It also gave a screen value [4] of 0.298, a screen value [5] of 0.381 and a screen value [6] of 0.492. The screen value [7] was 0.645 and the screen value [8] was 1.
“HIV-1 JR-CSF envelope glycoprotein gp160 (Env), P20871 JR-CSF_S199A” was tested, and the screen value [1] was 2.18, the screen value [2] was 0.0532 and the screen value [3] was 0.183. It also gave a screen value [4] of 0.348, a screen value [5] of 0.593 and a screen value [6] of 0.931. The screen value [7] was 0.997 and the screen value [8] was 1.
In the case of “HIV-1 JR-CSF envelope glycoprotein gp160 (Env), P20871 JR-CSF_T202A”, the screen value [1] was 2.71, the screen value [2] was 0.144 and the screen value [3] was 0.403. For the same substance, the screen value [4] was 0.617, the screen value [5] was 0.843 and the screen value [6] was 1. For the same substance, the screen value [7] was 0.973 and the screen value [8] was 0.97.
For “HIV-1 JR-CSF envelope glycoprotein gp160 (Env), P20871 JR-CSF_T303A”, the screen value [1] was 2.51, the screen value [2] was 0.128 and the screen value [3] was 0.303. The screen value [4] was 0.493, the screen value [5] was 0.793 and the screen value [6] was 0.976. For the same substance, the screen value [7] was 1 and the screen value [8] was 0.93.
“HIV-1 JR-CSF envelope glycoprotein gp160 (Env), P20871 JR-CSF_T303I” showed a screen value [1] of 1.66, a screen value [2] of 0.0358 and a screen value [3] of 0.0925. The screen value [4] was 0.153, the screen value [5] was 0.308 and the screen value [6] was 0.682. For the same substance, the screen value [7] was 0.979 and the screen value [8] was 1.
For “HIV-1 JR-CSF envelope glycoprotein gp160 (Env), P20871 JR-CSF_T320A”, the screen value [1] was 2.47, the screen value [2] was 0.13 and the screen value [3] was 0.297. It also gave a screen value [4] of 0.477, a screen value [5] of 0.754 and a screen value [6] of 0.942. It also gave a screen value [7] of 1 and a screen value [8] of 0.974.
“HIV-1 JR-CSF envelope glycoprotein gp160 (Env), P20871 JR-CSF_V127A” gave a screen value [1] of 2.51, a screen value [2] of 0.217 and a screen value [3] of 0.347. For the same substance, the screen value [4] was 0.491, the screen value [5] was 0.715 and the screen value [6] was 0.915. It also gave a screen value [7] of 1 and a screen value [8] of 0.951.
